Assay results reported in the domain aggregation screens of Martell et al. (2025).

Assay: soluble fraction after stress (log2 fold change); higher = more stays soluble; pooled small domains, quantitative proteomics
Conditions: stress: pH 4
Method in brief: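 How much of each domain stays soluble after acid stress, expressed as a fold change, is used to gauge aggregation propensity. Pooled custom libraries of small domains underwent pH 4 stress before high-throughput quantitative proteomics. A higher log2 value means more of the domain stayed soluble.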

| Sequence | soluble fraction (log2) |
| --- | --- |
| HMKLIRLGKAAGELNVGMSTLAEFLQSKGHSVDPNPNTKLTPEQYALLRMEFAADQTLKKLTKQP | -0.117 |
| HMSSEASALRGWLQTSQYQGSVTLFANALNVPLKTVEDWVYGRSKPSLQHWSQLYEATGLPEYQQ | 0.0888 |
| HMRDSYTFEDIEKLKDSYLQDSEKALEKLISIYEDTNQSLAIRTAALDIITDSQDPTFKLALEKIIS | -0.751 |
| HMGVLSPRQSQILALVAQGLGNREIAERLHIAPTTARDHVQAIMRRLNVNSRAAAAVMGVKLGLI | 0.085 |
| HMPDPVHAAYLRLAVLLTEQAIGPQVTEQQIRDRFALTRRQTSDLMGRLIREGIAEKRAGYGWNINTELTA | -0.748 |
| HMTPVFGEEETVLQAAVRGIISDTDQWTMEAEAKSMLNQLGFSDYEEKMAHMSGGQKKRVALVNALLTP | -0.555 |
| HMSREQARRFYFDTWAKHRASQPLTDLEKIALTVMLLHPEYHSLLDKPDHYVDKDYSPEAGQTNPFLHM | -0.474 |
| HMKNSIKLDNFVGMSYDEVISNKEYDFNFVSAFEKTSDYEAGTIIGQTPAAEERVMVGTTVTLTVAQP | 0.158 |
| HMVPHTTSMVAEVQERLFNLNYDPGPINGRMDQATITAITRFQRNFSLPQTGQIDEGFLNTLRDARL | 0.063 |
| HMAMDVKEVLLPGVGLRYEFDNSDGDRIGVIAKRSGDFEVVRYTAADRDAAQPMFRLTDEEADALAQILGA | -0.487 |
| HMDEFTIILEDAGSQKIAVIKEVRVLNSSLGLKEAKDLVDATPATIMEKADKATADKAKAAFEAAGAKVTI | -0.75 |
| HMNMKVGPVPANVVPANIKAHVSNNYSKYQIVQMMQNDKGYQVKLSNGTDLYYDKDGNILKTS | 0.0948 |
| HMSDNLSASERKALSHMEGMESVRSSEVADLLGMSQRGAQKLLNRLVDKGLASSFGANRNRRYSVE | 0.111 |
| HMGQPAVSSRDVAEQFGKEHRNVIQSIKNLIAENSALTFMFIEDTYTAGTGKKYPMYYMNRDGFTLLA | -0.15 |
| HMELNKNDLKIIKNISHIYPYFTPVKILQLILSKKFKTIDYNKILKSTSILTTDRSHLYYILNN | 0.22 |
| HMTGSETLQDIFAHLEAGTVRTALSLIPRLDAVEYEQNRQRIAELAGVRPSALDDLRKQAKREEN | -0.434 |
| HMNGAAAEQARKQLMTALKASEFIAQDKLDEWLDALALPQEKRSAIIDAVDELDYEEAISELEN | -0.2 |
| HMPGLPLWAFSTRGSAIHTGASFRDGDGLLFGPESRGLPDWLLEEVGQDRVLRLPMRPGSRSLNLSNAV | -1.7 |
| HMPSLSAILHDARVAAGLSMRQASAASGLSIGFISMLEQGKVQDISLQRLGRLVTAYDLEPLDVIEAAG | -0.848 |

| Sequence | soluble fraction (log2) |
| --- | --- |
| HMTIGKIVNIIEGSYANVRSAPDQNSEPIGRAYPGDAFLVDPLGSSGDWVKVTYEGQSGFIFQAYISV | -1.28 |
| HMNADKEALIAAAYRNSLIENFGTENVERYEERFNKWADKHDRQGMPMYPTIEKWMNEDNIA | -0.209 |
| HMEPADALVAALVARGVSPSTARITVKQYPATRIQPQLEVFDYLVAQKDPKVSRNPPGFLLSAIRGEYA | 0.0562 |
| HMFDGNIKIVEDAFSVTIVARGTEVKISGDPENVYLASKTVEGLLTLIDKGEAITDQRVHYVIGLVREG | -1.71 |
| HMHGEAEFLDATAVVMEKLNPGGLVKIKGEIWQAVSKDGHTIQEGEKVRVFERQGITLLVGHF | -0.223 |
| HMVSRVTTPGVVGKTWQETKQILKQADLTVGSLTRDGKDVTPADGDLVTAQNPSAGQAIVRGSSVDLTFDK | 0.0198 |
| HMRGLGDLEPVDSLGKIRIDDGHMVLAFGRHKGRHLSEVQAEDPRYIHWLLSPKGIEDVEAREKVKVYLEG | -0.136 |
| HMSNEEEIEGLVSKVLDNNPEIVERIRSGEDKLISYLVGEVMKQSSSSLNPGIVKEIIVNKTI | -0.154 |
| HMATSNGEFVIPDGGLQFEELERSLLMQALKKSGGSQTGAARLLGLSRDTLRYRLEKFGIDAAAVRE | -0.149 |
| HMFSIDRNIRRLRKEAGLTQEELAQKLFVTRQTISLWELGKVHPDLETLQKLAEQFQVDLLQVLYGPE | -2.41 |
| HMELEWENYSLAGEIKTTVMLYQNRRNGLPEEAKQKADALMKQLKQAVIENDAQKVEKIDDALTALLFE | -0.249 |
| HMIQTMVVTDLKNGTIFKENGHPFIVLKYEHIKVSRGSAQVRVKMKNLITGQVLEKSWQSTAHVDDT | 0.186 |
| HMQNWFADPKFEMFEDYGDAQSFYDTETKNIYVVMAEYGQKGSNTIQEITPDSEEYIPNYEKYKEYMENK | -1.42 |
| HMKKTTEFAVTPEFQQRLEASPELKAAFQALTPGRQRAHLLFFAAPKQAQTRQARIEKSLPQIMAGKGLN | -0.0768 |
| HMIEGSSDWKPNMILDDGGDLTKIIHEEYQDLLDDIRGLSEETTTGVLRLYEMEKENSLAVPAINVND | -0.578 |
| HMELLPAERRQQLVDWFKSNQAGTSQDLARMFGISVSTIRRDLDLLASEGLVKRTHGGAVSIR | 0.2 |
| HMNTWVEIFRAEDQGQIRDASLVLLAVKVAHRVDMNSSSAPWSLMVPAQDQQRAHHELTTYWQENAH | -1.35 |
| HMELSAQEIGRRLRIARENADIRQDDAAQVIGMSRPTLVSIEKGVRRVRIQEIQMLARHYGVSVNALLR | -0.2 |
| HMHDAKTQLQEEAARRGLPAPVYTRIGQEGPDHAPRFRVRADVGPHQAEAVAGSLKLAQAEAARAILRQMP | 0.28 |
